For the assay, the target named is NA (neuraminidase) used in the NA activity inhibition experiments of Example 9. Briefly: cell-based or functional assay.

B1: plant-produced humanized 2B9 antibody G2K3 (antibody, V domains shown)
VH: QVQLVQSGSELKKPGASVKMSCKAAGYTFTNYWIGWVRQAPGQGLEWIGDIYPENDFSNYNEKFKDRATLTADTSTRTAYMELSSLRSEDTAVYYCVRANEGWYLDVWGQGTTVTVSS
VL: DIQMTQSPSSLSASVGDRVTITCRASENIYSYLAWYQQKPGKAPKLLVYFAKTLAEGVPSRFSGSGSGTEFTLTISSLQPDDFANYYCQHHYGTPYTFGQGTKLEIKR
For B1, the IC50, inhibition of NA activity turned out to be 0.5 µg/mL.

B2: plant-produced humanized 2B9 antibody G5K4 (antibody, V domains shown)
VH: QVQLVQSGSELKKPGASVKVSCKAAGYTFTNYWIGWVRQAPGQGLEWIGDIYPENDFSNYNEKFKDRVTITADTSTSTAYMELSSLRSEDTAVYYCVRANEGWYLDVWGQGTTVTVSS
VL: DIQMTQSPSSLSASVGDRVTITCRASENIYSYLAWYQQKPGKAPKLLVYFAKTLAEGVPSRFSGSGSGTEFTLTISSLQPDDFATYYCQHHYGTPYTFGQGTKLEIKR
For the molecule B2, the IC50, inhibition of NA activity came to 0.21 µg/mL.

B3: plant-produced humanized 2B9 antibody G2K4 (antibody, V domains shown)
VH: QVQLVQSGSELKKPGASVKMSCKAAGYTFTNYWIGWVRQAPGQGLEWIGDIYPENDFSNYNEKFKDRATLTADTSTRTAYMELSSLRSEDTAVYYCVRANEGWYLDVWGQGTTVTVSS
VL: DIQMTQSPSSLSASVGDRVTITCRASENIYSYLAWYQQKPGKAPKLLVYFAKTLAEGVPSRFSGSGSGTEFTLTISSLQPDDFATYYCQHHYGTPYTFGQGTKLEIKR
With B3, the IC50, inhibition of NA activity turned out to be 1.16 µg/mL.

B4: plant-produced humanized 2B9 antibody G5K3 (antibody, V domains shown)
VH: QVQLVQSGSELKKPGASVKVSCKAAGYTFTNYWIGWVRQAPGQGLEWIGDIYPENDFSNYNEKFKDRVTITADTSTSTAYMELSSLRSEDTAVYYCVRANEGWYLDVWGQGTTVTVSS
VL: DIQMTQSPSSLSASVGDRVTITCRASENIYSYLAWYQQKPGKAPKLLVYFAKTLAEGVPSRFSGSGSGTEFTLTISSLQPDDFANYYCQHHYGTPYTFGQGTKLEIKR
B4 gave an IC50, inhibition of NA activity of 0.45 µg/mL.

These data come from US8734803.
